Data from patent publication US20250213711A1, “ANTI-CANAG ANTIBODY CONJUGATE” (IKSUDA THERAPEUTICS LIMITED, priority 2022, published 2025).

Columns and labels:
CanAg antigen (human) [1] = molecular target: CanAg antigen (human) (UniProt P15941); experiment: flow cytometry on CanAg positive Colo205 cells, AF488 anti-human IgG secondary, MFI curve
CanAg antigen (human) [2] = molecular target: CanAg antigen (human) (UniProt P15941); experiment: flow cytometry on N87 cells, 20 µg/mL PE conjugate, Quantibrite PE beads
CanAg antigen (human) [3] = molecular target: CanAg antigen (human) (UniProt P15941); experiment: flow cytometry on BxPC3 cells, 20 µg/mL PE conjugate, Quantibrite PE beads
CanAg antigen (human) [4] = molecular target: CanAg antigen (human) (UniProt P15941); experiment: flow cytometry on HT-29 cells, 20 µg/mL PE conjugate, Quantibrite PE beads
CanAg antigen (human) [5] = molecular target: CanAg antigen (human) (UniProt P15941); experiment: flow cytometry on SNU-16 cells, 20 µg/mL PE conjugate, Quantibrite PE beads
CanAg antigen (human) [6] = molecular target: CanAg antigen (human) (UniProt P15941); experiment: flow cytometry on Colo205 cells, 20 µg/mL PE conjugate, Quantibrite PE beads
Colo-205 cells = experiment: Cell Titre-Glo (CTG) in vitro activity assay, Colo-205; format: cell-based, human; conditions: 72 h, 10% FBS (FIG. 16)
From the text: (§1) The ADC non-binding control was an anti-CD19 ADC (DAR 2.0) composed of the same linker-drug combination as ADC-3.

Colo-205 xenograft = conditions: CB17 SCID mice, single intravenous dose 2 mg/kg (53 nmol drug/kg), calculation based on day 16
Description: Mice were subcutaneously inoculated into the right flank with 5×10^6 Colo-205 cells in 0.2 mL of DPBS mixed 1:1 with BD Matrigel. […] Tumour size was measured thrice weekly in two dimensions using a calliper, and the volume was expressed in mm^3 using the formula: V=0.5 a×b^2 where a and b are the long and short diameters of the tumour, respectively (see FIGS. 17A, 18 A and 19 A). The tumour size was then used for calculations of TGI (%) values (see Table 5). TGI, representing antitumor effectiveness, were calculated using the formula TGI (%)=[1-(Vtreat-t−Vtreat-1)/(Vcontrol-t−Vcontrol-1)]×100, where Vtreat-1 and Vcontrol-1 are the mean volumes of the treated and control groups on grouping day; Vtreat-t and Vcontrol-t are the mean volumes of the treated and control groups on a given day. Animals were euthanized when tumour volumes reached 2000 mm^3. Body weight was also measured thrice weekly as a measure of compound toxicity (see FIGS. 17 B, 18 B and 19 B).

BxPC3 xenograft = experiment: In vivo efficacy study in BxPC3 xenograft model; set-up: species or system mice
Description: Conjugate doses of 0.4 mg/kg (5.3 nmol of conjugated drug/kg), 1 mg/kg (13 nmol of conjugated drug/kg) for ADC-2 and ADC-3, and 0.2 mg/kg (5.3 nmol of conjugated drug/kg) and 0.5 mg/kg (13 nmol of conjugated drug/kg) for Cantuzumab ravtansine were used.

[7] = test system: NCI-N87 gastric cancer xenograft; experiment: In vivo efficacy study in NCI-N87 xenograft model; set-up: species or system mice; conditions: single intravenous dose 2 mg/kg (53 nmol drug/kg), day 33
From the text: as §1

B1: HC1 + LC1 (antibody, human IgG1, kappa, V domains shown)
VH: QVQLVQSGAEVKKPGASVKVSCKASDYTFTYYGINWVRQAPGQGLEWMGWIDTTTGEPNYAQKLQGRVTFTLDTSASTAYMELRSLRSDDTAVYYCARRGPYNWYFDVWGQGTLVTVSS
VL: DIVMTQTPLSLPVTPGEPASISCRSSKSLLHSNGNTYLYWYLQKPGQSPQLLIYRMSNRASGVPDRFSGSGSGTDFTLKISRVEAEDVGVYYCLQHLEYPFTFGPGTKVDIKR
- EC50 (CanAg antigen (human) [1]): 0.274 µg/mL

B2: Phycoerythrin (PE)-conjugated HC1LC1 antibody (antibody, V domains shown)
VH: QVQLVQSGAEVKKPGASVKVSCKASDYTFTYYGINWVRQAPGQGLEWMGWIDTTTGEPNYAQKLQGRVTFTLDTSASTAYMELRSLRSDDTAVYYCARRGPYNWYFDVWGQGTLVTVSS
VL: DIVMTQTPLSLPVTPGEPASISCRSSKSLLHSNGNTYLYWYLQKPGQSPQLLIYRMSNRASGVPDRFSGSGSGTDFTLKISRVEAEDVGVYYCLQHLEYPFTFGPGTKVDIKR
modifications: R-phycoerythrin conjugated by Lightning-Link kit; sites not stated
- PE molecules per cell (PE molecules per cell) (CanAg antigen (human) [2]): 2570
- PE molecules per cell (PE molecules per cell) (CanAg antigen (human) [3]): 75300
- PE molecules per cell (PE molecules per cell) (CanAg antigen (human) [4]): 626000
- PE molecules per cell (PE molecules per cell) (CanAg antigen (human) [5]): 1.15e+07
- PE molecules per cell (PE molecules per cell) (CanAg antigen (human) [6]): 2.61e+06

B3: HC1 + LC2 (antibody, human IgG1, kappa, V domains shown)
VH: QVQLVQSGAEVKKPGASVKVSCKASDYTFTYYGINWVRQAPGQGLEWMGWIDTTTGEPNYAQKLQGRVTFTLDTSASTAYMELRSLRSDDTAVYYCARRGPYNWYFDVWGQGTLVTVSS
VL: DIVMTQSPLSLPVTPGEPASISCRSSKSLLHSNGNTYLYWYLQKPGQSPQLLIYRMSNLASGVPDRFSGSGSGTDFTLKISRVEAEDVGVYYCLQHLEYPFTFGPGTKVDIKR
- EC50 (CanAg antigen (human) [1]): 0.268 µg/mL

B4: HC1 + LC3 (antibody, human IgG1, kappa, V domains shown)
VH: QVQLVQSGAEVKKPGASVKVSCKASDYTFTYYGINWVRQAPGQGLEWMGWIDTTTGEPNYAQKLQGRVTFTLDTSASTAYMELRSLRSDDTAVYYCARRGPYNWYFDVWGQGTLVTVSS
VL: DIVMTQTPLSLSVTPGQPASISCKSSKSLLHSNGNTYLYWYLQKPGQSPQLLIYRMSNLFSGVPDRFSGSGSGTDFTLKISRVEAEDVGVYYCLQHLEYPFTFGPGTKVDIKR
- EC50 (CanAg antigen (human) [1]): 0.305 µg/mL

B5: HC2 + LC1 (antibody, human IgG1, kappa, V domains shown)
VH: QVQLVQSGAEVKKPGASVKVSCKASDYTFTYYGMNWVRQAPGQGLEWMGWIDTTTGEPSYAQKFQGRVTFTLDTSASTVYMELSSLRSEDTAVYYCARRGPYNWYFDVWGQGTLVTVSS
VL: DIVMTQTPLSLPVTPGEPASISCRSSKSLLHSNGNTYLYWYLQKPGQSPQLLIYRMSNRASGVPDRFSGSGSGTDFTLKISRVEAEDVGVYYCLQHLEYPFTFGPGTKVDIKR
- EC50 (CanAg antigen (human) [1]): 0.351 µg/mL

B6: HC2 + LC2 (antibody, human IgG1, kappa, V domains shown)
VH: QVQLVQSGAEVKKPGASVKVSCKASDYTFTYYGMNWVRQAPGQGLEWMGWIDTTTGEPSYAQKFQGRVTFTLDTSASTVYMELSSLRSEDTAVYYCARRGPYNWYFDVWGQGTLVTVSS
VL: DIVMTQSPLSLPVTPGEPASISCRSSKSLLHSNGNTYLYWYLQKPGQSPQLLIYRMSNLASGVPDRFSGSGSGTDFTLKISRVEAEDVGVYYCLQHLEYPFTFGPGTKVDIKR
- EC50 (CanAg antigen (human) [1]): 0.408 µg/mL

B7: HC2 + LC3 (antibody, human IgG1, kappa, V domains shown)
VH: QVQLVQSGAEVKKPGASVKVSCKASDYTFTYYGMNWVRQAPGQGLEWMGWIDTTTGEPSYAQKFQGRVTFTLDTSASTVYMELSSLRSEDTAVYYCARRGPYNWYFDVWGQGTLVTVSS
VL: DIVMTQTPLSLSVTPGQPASISCKSSKSLLHSNGNTYLYWYLQKPGQSPQLLIYRMSNLFSGVPDRFSGSGSGTDFTLKISRVEAEDVGVYYCLQHLEYPFTFGPGTKVDIKR
- EC50 (CanAg antigen (human) [1]): 0.354 µg/mL

B8: HC3 + LC1 (antibody, human IgG1, kappa, V domains shown)
VH: QVQLVQSGAEVKKPGASVKVSCKASDYTFTYYGINWVRQATGQGLEWMGWIDTTTGEPTYAQKFQGRVTFTLETSISTAYMELSSLRSEDTAVYYCARRGPYNWYFDVWGAGTLVTVSS
VL: DIVMTQTPLSLPVTPGEPASISCRSSKSLLHSNGNTYLYWYLQKPGQSPQLLIYRMSNRASGVPDRFSGSGSGTDFTLKISRVEAEDVGVYYCLQHLEYPFTFGPGTKVDIKR
- EC50 (CanAg antigen (human) [1]): 0.266 µg/mL

B9: HC3 + LC2 (antibody, human IgG1, kappa, V domains shown)
VH: QVQLVQSGAEVKKPGASVKVSCKASDYTFTYYGINWVRQATGQGLEWMGWIDTTTGEPTYAQKFQGRVTFTLETSISTAYMELSSLRSEDTAVYYCARRGPYNWYFDVWGAGTLVTVSS
VL: DIVMTQSPLSLPVTPGEPASISCRSSKSLLHSNGNTYLYWYLQKPGQSPQLLIYRMSNLASGVPDRFSGSGSGTDFTLKISRVEAEDVGVYYCLQHLEYPFTFGPGTKVDIKR
- EC50 (CanAg antigen (human) [1]): 0.327 µg/mL

B10: HC3 + LC3 (antibody, human IgG1, kappa, V domains shown)
VH: QVQLVQSGAEVKKPGASVKVSCKASDYTFTYYGINWVRQATGQGLEWMGWIDTTTGEPTYAQKFQGRVTFTLETSISTAYMELSSLRSEDTAVYYCARRGPYNWYFDVWGAGTLVTVSS
VL: DIVMTQTPLSLSVTPGQPASISCKSSKSLLHSNGNTYLYWYLQKPGQSPQLLIYRMSNLFSGVPDRFSGSGSGTDFTLKISRVEAEDVGVYYCLQHLEYPFTFGPGTKVDIKR
- EC50 (CanAg antigen (human) [1]): 0.294 µg/mL

B11: Cantuzumab ravtansine: humanised ADC targeting CanAg: cantuzumab (HuC242) conjugated to the cytotoxic maytansinoid drug ravtansine; DAR 4.0 (conjugate, chains of the INN, looked up)
VH: QVQLVQSGAEVKKPGETVKISCKASDYTFTYYGMNWVKQAPGQGLKWMGWIDTTTGEPTYAQKFQGRIAFSLETSASTAYLQIKSLKSEDTATYFCARRGPYNWYFDVWGQGTTVTVSS
VL: DIVMTQSPLSVPVTPGEPVSISCRSSKSLLHSNGNTYLYWFLQRPGQSPQLLIYRMSNLVSGVPDRFSGSGSGTAFTLRISRVEAEDVGVYYCLQHLEYPFTFGPGTKLELK
modifications: ravtansine maytansinoid payload, DAR 4.0
notes: humanised ADC targeting CanAg: cantuzumab (HuC242) conjugated to the cytotoxic maytansinoid drug ravtansine; DAR 4.0
- cells killed (Colo-205 cells): 75%
- TGI [%] at 15 day (Colo-205 xenograft): 40%
- anti-tumour response (in words) (BxPC3 xenograft; 0.2 mg/kg and 0.5 mg/kg, in comparison to ADC-2 and ADC-3 at the same conjugated drug doses (FIG. 20)): weak anti-tumour response
- time at which tumour started to regrow (BxPC3 xenograft; 2 mg/kg (53 nmol drug/kg)): > 32 days
- tumour inhibition (in words) (BxPC3 xenograft; 2 mg/kg (53 nmol drug/kg) (FIG. 21 A)): complete tumour inhibition
- TGI [%] at 29 or 32* day (BxPC3 xenograft; single intravenous dose 0.2 mg/kg (5.3 nmol drug/kg), day 29): 24.3%
- TGI [%] at 29 or 32* day (BxPC3 xenograft; single intravenous dose 0.5 mg/kg (13 nmol drug/kg), day 29): 34.6%
- TGI [%] at 29 or 32* day (BxPC3 xenograft; single intravenous dose 2 mg/kg (53 nmol drug/kg), day 32): 104* %
- TGI [%] at 33 day [7]: 43%
